± gives the standard deviation of the averaged measurements.
Tested on: ATP
Assay: switch fluorescence ratio, 500 uM ATP over buffer (Cy3 cluster intensity, sum of 5 cycles each) (fold (ratio)); higher = stronger signal-on switching upon ATP binding; sequences stand for … in TCGTCGGCAGCGTCAGATGTGTATAAGAGACAGTTTTTTTTTTTTTTTTTTTTTTTTT…TC
Conditions: aptamer strand: ATP DNA aptamer (quencher-CACCTGGGGGAGTATTGCGGAGGAAGG + anchor), 100 nM annealed; ATP concentration: 500 uM
Procedure, shortened: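 Values give the fluorescence ratio for each switch-domain sequence, averaged from per-cluster ratios of summed target-cycle to summed buffer-cycle Cy3 intensity. The Cy3-labelled switching-strand clusters sat on a modified Illumina MiSeq flow-cell, were annealed to 100 nM quencher-labelled ATP aptamer, and were imaged in selection buffer, then after 15 min with 500 uM ATP at 22 °C. Five cycles ran with NaOH stripping and re-annealing between them, and clusters outside 100-1000 RFU were excluded.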
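Also: ATP exposure 15 min at 22 °C before imaging.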

## GGGGAATACG
  switch fluorescence ratio: 1.11 ± 0.048

## GGGGAATAGG
  switch fluorescence ratio: 0.9962 ± 0.0084

## GGGGAATCTA
  switch fluorescence ratio: 0.997 ± 0.022

## GGGGAATGAT
  switch fluorescence ratio: 0.98 ± 0.021

## GGGGACGAGT
  switch fluorescence ratio: 0.99779 ± 0.00098

## GGGGACGGCA
  switch fluorescence ratio: 1.01 ± 0.046

## GGGGACGGTG
  switch fluorescence ratio: 1.03 ± 0.048

## GGGGACTGAG
  switch fluorescence ratio: 0.983 ± 0.029

## GGGGACTTTC
  switch fluorescence ratio: 1.03 ± 0.017

## GGGGAGAAAG
  switch fluorescence ratio: 0.9964 ± 0.0029

## GGGGAGAGCG
  switch fluorescence ratio: 1.01 ± 0.034

## GGGGAGAGGA
  switch fluorescence ratio: 0.987 ± 0.037

## GGGGAGAGGG
  switch fluorescence ratio: 0.984 ± 0.029

## GGGGAGCGCG
  switch fluorescence ratio: 0.981 ± 0.035

## GGGGAGCGGG
  switch fluorescence ratio: 0.99834 ± 0.00014

## GGGGAGCGTC
  switch fluorescence ratio: 1.01 ± 0.032

## GGGGAGGCCA
  switch fluorescence ratio: 0.963 ± 0.031

## GGGGAGGCTG
  switch fluorescence ratio: 0.971 ± 0.039

## GGGGAGGGGT
  switch fluorescence ratio: 1.01 ± 0.054

## GGGGAGTGCG
  switch fluorescence ratio: 0.969 ± 0.01

## GGGGAGTGG
  switch fluorescence ratio: 1.01 ± 0.025

## GGGGATAACG
  switch fluorescence ratio: 0.981 ± 0.012

## GGGGATAATT
  switch fluorescence ratio: 1.05 ± 0.025

## GGGGATATGG
  switch fluorescence ratio: 1.01 ± 0.039

## GGGGATGAAG
  switch fluorescence ratio: 0.994 ± 0.014

## GGGGATGGGG
  switch fluorescence ratio: 1.02 ± 0.044

## GGGGATTTGC
  switch fluorescence ratio: 0.969 ± 0.023

## GGGGCACGGG
  switch fluorescence ratio: 1.02 ± 0.034

## GGGGCAGCGT
  switch fluorescence ratio: 0.999 ± 0.043

## GGGGCAGGAG
  switch fluorescence ratio: 1.01 ± 0.06

## GGGGCAGGTT
  switch fluorescence ratio: 0.977 ± 0.038

## GGGGCATTGG
  switch fluorescence ratio: 0.99 ± 0.011

## GGGGCCATGG
  switch fluorescence ratio: 0.9123 ± 0.006

## GGGGCCCACG
  switch fluorescence ratio: 1.002 ± 0.006

## GGGGCCCCGT
  switch fluorescence ratio: 1.016 ± 0.0043

## GGGGCCCGGC
  switch fluorescence ratio: 0.904 ± 0.013

## GGGGCCGTAA
  switch fluorescence ratio: 0.992 ± 0.025

## GGGGCCTTTA
  switch fluorescence ratio: 0.9592 ± 0.0049

## GGGGCGAAGG
  switch fluorescence ratio: 0.999 ± 0.038

## GGGGCGACGT
  switch fluorescence ratio: 0.977 ± 0.023

## GGGGCGAGG
  switch fluorescence ratio: 0.994 ± 0.053

## GGGGCGGGGC
  switch fluorescence ratio: 1.01 ± 0.014

## GGGGCGTATC
  switch fluorescence ratio: 1.01 ± 0.04

## GGGGCGTGCG
  switch fluorescence ratio: 1.01 ± 0.02

## GGGGCGTTGG
  switch fluorescence ratio: 0.993 ± 0.033

## GGGGCGTTTG
  switch fluorescence ratio: 0.961 ± 0.057

## GGGGCTACTT
  switch fluorescence ratio: 1.02 ± 0.013

## GGGGCTATCA
  switch fluorescence ratio: 0.9712 ± 0.0081

## GGGGCTATCT
  switch fluorescence ratio: 1.33 ± 0.42

## GGGGCTATGG
  switch fluorescence ratio: 1.02 ± 0.045

## GGGGCTCATG
  switch fluorescence ratio: 0.99 ± 0.014

## GGGGCTCTCG
  switch fluorescence ratio: 0.99 ± 0.012

## GGGGCTTAAA
  switch fluorescence ratio: 1.04 ± 0.047

## GGGGCTTAGC
  switch fluorescence ratio: 1.02 ± 0.046

## GGGGCTTGGT
  switch fluorescence ratio: 1.01 ± 0.034

## GGGGGAAGAA
  switch fluorescence ratio: 1 ± 0.028

## GGGGGAAGCC
  switch fluorescence ratio: 0.98 ± 0.024

## GGGGGAATAC
  switch fluorescence ratio: 2.26 ± 0.5

## GGGGGACCGT
  switch fluorescence ratio: 1.01 ± 0.024

## GGGGGACGAC
  switch fluorescence ratio: 0.969 ± 0.035

## GGGGGACTCT
  switch fluorescence ratio: 0.986 ± 0.041

## GGGGGACTGA
  switch fluorescence ratio: 0.991 ± 0.03

## GGGGGACTGC
  switch fluorescence ratio: 1.01 ± 0.048

## GGGGGAGACG
  switch fluorescence ratio: 1.03 ± 0.075

## GGGGGAGATG
  switch fluorescence ratio: 0.992 ± 0.028

## GGGGGAGCGG
  switch fluorescence ratio: 0.992 ± 0.033

## GGGGGAGGTG
  switch fluorescence ratio: 1.03 ± 0.048

## GGGGGAGTCT
  switch fluorescence ratio: 1.11 ± 0.087

## GGGGGAGTGC
  switch fluorescence ratio: 1.06 ± 0.12

## GGGGGAGTTT
  switch fluorescence ratio: 1.01 ± 0.011

## GGGGGATCCG
  switch fluorescence ratio: 0.983 ± 0.019

## GGGGGATGTG
  switch fluorescence ratio: 1.012 ± 0.004

## GGGGGATTGC
  switch fluorescence ratio: 1.02 ± 0.066

## GGGGGCACGT
  switch fluorescence ratio: 1.017 ± 0.0074

## GGGGGCAGAT
  switch fluorescence ratio: 0.97 ± 0.018

## GGGGGCAGGG
  switch fluorescence ratio: 0.998 ± 0.065

Reference: the supplement of paper PMC10126150
